In publication PMC7026729 (EBioMedicine, 2020):
Numbering of substitutions follows the chain as printed.

B1: Bacterial lipocalin Blc^G84 (natural protein, E. coli, UniProt P0A901 19-177, looked up)
chain: CSSPTPPRGVTVVNNFDAKRYLGTWYEIARFDHRFERGLEKVTATYSLRDDGGLNVINKGYNPDRGMWQQSEGKAYFTGAPTRAALKVSFFGPFYGGYNVIALDREYRHALVCGPDRDYLWILSRTPTISDEVKQEMLAVATREGFDVSKFIWVQQPGS
B2: Bacterial lipocalin Blc^E84 (natural protein, E. coli, UniProt P0A901 19-177, looked up)
chain: B1 chain with G66E

Molecular target: the molecule itself
Experiment: cross-linking

| Protein | stoichiometry N |
| --- | --- |
| B1 | 2 |
| B2 | 2 |
